{"source": "patent US5800815", "about": "“Antibodies to P-selectin and their uses” (Cytel Corporation, dated 1998)", "binders": {"B1": {"name": "reshaped MAb PB1.3, heavy chain CY1748RHA with light chain CY1748RLB (antibody, V domains shown)", "VH": "EAQLVQSGAEVKKPGASVKVSCKASGYTFTNYVMHWVRQAPGQRLEWMGFINPSNDGPKYNERFKNRVTITSDTSASTAYMELSSLRSEDTAVYYCARARPGFDWYFDVWGQGTLVTVSS", "VL": "DIQMTQSPSTLSASVGDRVTVTCKASQNVATNVVWYQQKPGEAPKALIYTASYRFSGVPSRFSGSGSGTDFTLTISSLQSDDFATYYCQQYNNYPYTFGQGTKLEIK"}, "B2": {"name": "reshaped MAb PB1.3, heavy chain CY1748RHA with light chain CY1748RLC (antibody, V domains shown)", "VH": "B1 VH", "VL": "B1 VL with S60E, D70E"}, "B3": {"name": "reshaped MAb PB1.3 (HA/LA), IgG1 isotype (antibody, V domains shown)", "VH": "B1 VH", "VL": "B1 VL with S60E"}, "B4": {"name": "mu MAb PB1.3 (antibody, V domains shown)", "VH": "EAQLQQSGPELVEPGASVKVSCKASGYTFTNYVMHWVKQKPGQGLEWIGFINPSNDGPKYNERFKNKATLTSDKSSSTAYMELSSLTSEVSAVYFCARARPGFDWYFDVWGAGTTVTVSS", "VL": "DIVMTQSQKFMSTSVGDRVSVTCKASQNVATNVVWYQQRPGQSPKALIYTASYRFSGVPERFSGSGSGTDFTLTITNVQSEDLADYFCQQYNNYPYTFGGGTKVEIQ"}, "B5": {"name": "reshaped MAb PB1.3 (HB/LD), IgG4 isotype (antibody, V domains shown)", "VH": "B1 VH with E1Q, A2V", "VL": "B1 VL with D70E"}}, "key": {"[1]": {"biological_target": "T1, recombinant soluble P-selectin (Homo sapiens (Human), UniProt P16109)", "assay": "ELISA on plates coated with rsP-selectin, COS cell supernatants", "description": "Media from the transfected COS cells were assayed by ELISA to quantify levels of human antibody produced and analyze capacity to bind to recombinant soluble P-selectin (rsP-selectin). Immulon microtiter plates ([…], #011-010-3355) were coated with 100 μl/well of a solution of goat anti-human IgG (whole molecule, SIGMA #I-1886) to a final concentration of 12.5 μg/ml or a solution of rsP-selectin (1.2 mg/ml) diluted in Dulbecco's phosphate buffered saline (DPBS). Plates were coated overnight at 4° C. or for 2 h at 37° C. The plates were then washed three times with DPBS. The plates were then blocked with 400 μl/well of DPBS+1% bovine serum albumin (BSA, SIGMA, #A-7888) for one h or longer at room temperature. The plates were then washed three times with DPBS.\nSerial dilutions of the monoclonal antibodies in DPBS+ 1% BSA were added to the plates (100 μl/well), and the plates were incubated for 1 h at room temperature. The plates were then washed three times with DPBS. 100 μl/well of a second antibody (goat anti-human IgG peroxidase conjugate, SIGMA #A-8867) diluted 1 to 1000 in DPBS+ 1% BSA was added to the plates, and the plates were incubated for one h at room temperature. The plates were then washed three times with DPBS. […] The plates were read at 450 nm in a […] […]"}, "[2]": {"biological_target": "T1, recombinant soluble P-selectin", "assay": "competitive ELISA on rsP-selectin; reference unlabelled PB1.3", "description": "(§1) A 96-well plate (MICROTEST III, FALCON #3912) was coated with 50 μl/well of rsP-selectin (diluted to 2 μg/ml in DPBS) overnight at 4° C. or 90 min at 37° C. The plate was inverted and residual fluid was tapped away.\n(§2) The coated plate and an additional blank plate were blocked with 200 µl/well of DPBS+1% bovine serum albumin (BSA, SIGMA #A-7888), for 1 h at room temperature. The blank plate was inverted and the residual blocking fluid was tapped away. The rsP-selectin coated plate was allow to continue blocking during the antibody dilution period. Serially diluted sample antibodies (in DPBS+1% BSA) were added to the blank plate at 50 µl/well. The initial concentrations of the antibodies were 100 µg/ml. Biotinylated-PB1.3 (diluted to 0.3 µg/ml in DPBS+1% BSA) was added to the sample antibodies in the blank plate, 50 µl/well, and mixed by pipetting up and down. The rsP-selectin coated plate was washed three times with DPBS. The sample antibody/biotinylated -PB1.3 mixture was pipetted into the plate coated with rsP-selectin, 50 µl/well, and allowed to incubate for one h at room temperature. The plate was then washed three times with DPBS.\n(§3) Streptavidin horse radish peroxidase conjugate (PIERCE #21124) diluted 1:2000 in DPBS+1% BSA was added to the plate, 50 µl/well and allowed to incubate for 1 h at room temperature. The plate was then washed three times with DPBS."}, "[3]": {"biological_target": "T1, recombinant soluble P-selectin", "assay": "competitive ELISA on rsP-selectin; competitor biotinylated PB1.3", "description": "as §1, §2, §3"}, "P-selectin Δ5CRP": {"biological_target": "P-selectin Δ5CRP (human, UniProt P16109)", "assay": "direct ELISA of COS cell supernatants"}, "[4]": {"biological_target": "T1, recombinant soluble P-selectin", "assay": "competitive ELISA on rsP-selectin; unlabelled PB1.3 against biotinylated PB1.3", "description": "as §1, §2, §3"}, "peptide CQNRYTDLVAIQNKNE": {"biological_target": "T2, peptide CQNRYTDLVAIQNKNE", "T2 peptide": "CQNRYTDLVAIQNKNE-NH2", "assay": "indirect: soluble peptide as competitor in ELISA of PB1.3 on affinity purified P-selectin", "description": "III. […] Dilutions of mu MAb PB1.3 in DPBS+1% BSA were mixed with either 0.35 mg/ml CQNRYT-[…] (SEQ ID No: 1) in PBS, or as a control, PBS alone. After 1 hr, 50 μl of each antibody dilution was added to the microtiter plate, and incubated for 1 hr. The plate was washed with DPBS, and a 1 to 1000 dilution of sheep anti-mouse IgG horseradish peroxidase conjugate in DPBS+ 1% BSA was added. After 1 hr, the plate was washed, the substrate TMB was added, and the color development was stopped and the plates read as above."}}, "note": "Changes are numbered by the printed parent chain. No end group written: not given here."}
{"binder": "B1", "values": [{"measurement": "binding result", "setting": "[1]", "result": "binds"}]}
{"binder": "B2", "values": [{"measurement": "binding result", "setting": "[1]", "result": "binds"}]}
{"binder": "B3", "values": [{"measurement": "binding relative to PB1.3", "setting": "[2]", "result": 50, "unit": "%"}, {"measurement": "IC50", "setting": "[3]", "result": 2, "unit": "µg/mL"}]}
{"binder": "B4", "values": [{"measurement": "binding result", "setting": "P-selectin Δ5CRP", "result": "no binding"}, {"measurement": "IC50", "setting": "[4]", "result": 1, "unit": "µg/mL"}, {"measurement": "binding result", "setting": "peptide CQNRYTDLVAIQNKNE", "result": "no binding (tested: 0.35 mg/ml)"}]}
{"binder": "B5", "values": [{"measurement": "binding relative to PB1.3", "setting": "[2]", "result": 50, "unit": "%"}]}
